Laboratory results: patent US20260062479A1
Changes are numbered by the printed parent chain. Each block holds one binder with its values, some of them ahead of it.

Target: largest TIRC7 extracellular domain (T-cell immune response cDNA 7) (human) (UniProt Q13488)
Test: SPR, Biacore T200, 25 C, TIRC7 domain immobilized on CM5 chip, 1:1 kinetic fit

kon: 3.56e+06 M⁻¹ s⁻¹
B3: cAB1459-10.0 (antibody, V domains shown)
VH: QVQLVQSGAEVKKPGASVKVSCKASGYTFTTYVMHWVRQAPGKGLEWMGYINPYNDGTNYNEKFKGRVTMTEDTSTDTAYMELSSLRSEDTAVYYCAEFITKTVGGSNWYLDVWGQGTTVTVSS
VL: DIQLTQSPSFLSASVGDRVTITCSASSSISYIHWFQQKPGKAPKRWIYDTSKLPSGVPSRFSGSGSGTEYTLTISSLQPEDFATYYCHQRSSYTWTFGGGTKLEIK

Kd: 0.3 nM | koff: 0.00013 s⁻¹ | kon: 520000 M⁻¹ s⁻¹
B4: parent antibody (murine anti-TIRC7 antibody 17-20, cAb1457) (antibody, V domains shown)
VH: QVQLKQSGPELVKPGASVKMSCKASGYTFTTYVMHWVKQKPGQGLEWIGYINPYNDGTNYNEKFKGKATLTSDKSSSTAYMELSTLTSEDSAVYYCAEFITKTVGGSNWYLDVWGAGTTVTVSS
VL: DIVLTQSPAIMSASPGEKVTMTCSASSSISYIHWFQQKPGTSPKRWIYDTSKLPSGVPARFSGSGSGTSYSLTISSMEAEDAATYYCHQRSSYTWTFGGGTKLEIK

More lines, now with the values behind:

B1: cAB1467-10.0 (antibody, V domains shown)
VH: B3 VH with M70L, E72S, T74K, D77S
VL: B3 VL
kon: 1.24e+06 M⁻¹ s⁻¹

B2: cAB1468-10.0 (antibody, V domains shown)
VH: B3 VH with M70L, E72S, T74K, D77S
VL: EIVLTQSPATLSLSPGERATLSCSASSSISYIHWYQQKPGQAPRRLIYDTSKLPSGIPARFSGSGSGTDFTLTISSLEPEDFAVYYCHQRSSYTWTFGGGTKLEIK
kon: 1.13e+06 M⁻¹ s⁻¹
